These results are taken from paper PMC10413660, “Structural basis of purine nucleotide inhibition of human uncoupling protein 1” (Science Advances, 2023).

The chains are these.
B1: human uncoupling protein 1 (UCP1) (natural protein, UniProt P25874 2-307, looked up)
chain: GGLTASDVHPTLGVQLFSAGIAACLADVITFPLDTAKVRLQVQGECPTSSVIRYKGVLGTITAVVKTEGRMKLYSGLPAGLQRQISSASLRIGLYDTVQEFLTAGKETAPSLGSKILAGLTTGGVAVFIGQPTEVVKVRLQAQSHLHGIKPRYTGTYNAYRIIATTEGLTGLWKGTTPNLMRSVIINCTELVTYDLMKEAFVKNNILADDVPCHLVSALIAGFCATAMSSPVDVVKTRFINSPPGQYKSVPNCAMKVFTNEGPTAFFKGLVPSFLRLGSWNVIMFVCFEQLKRELSKSRQTMDCAT
notes: wild-type human UCP1, UniProt P25874; the forward primer joins the His8 tag and Factor Xa site to codon 2 of UCP1, the reverse primer runs to the stop codon; also called SLC25A7; not shown: His8, N-terminal, cleaved
B2: nanobody CA9865 (VHH)
VHH: QVQLVESGGGLVQAGGSLRLSCAPSGRTSSTYTMGWFRQAPGKEREFVAAISWTGTPYYADSVKGRFTISRDNAKNTVYLQMNSLKPEDTAVYYCAAARPGLFIFVSDYARTAKYDYWGQGTQVTVPP
notes: the nanobody part of PMb65, whose structure is deposited as PDB 8G8W; phage display library in the pMESy4 vector; also called nanobody 65
B3: nanobody CA9871 (VHH)
VHH: QVQLVESGGGLVQAGDSLRLSCAASGLTLKNYAMGWFRQAPGKEHEFVAVISWSGSGTSYADSVEGRFTISRDNAKNTAFLQMSSLKPEDTAVYYCAARDGGYGSRWPDEYTYWGQGTQVTVPP
notes: the nanobody part of PMb71, whose structure is deposited as PDB 8G8W; phage display library in the pMESy4 vector; also called nanobody 71

Holding throughout (conditions): both partners purified
The target of data set [1] is T1, Pro-macrobody PMb65 (nanobody CA9865 fused with maltose-binding protein via a Pro-Pro linker) (llama (Lama glama) | ).
T1 construct: nanobody CA9865; the structure with PMb65 is deposited as PDB 8G8W (only regions of PMb65 are modelled); Pro-Pro linker between nanobody and MBP; parts of it are removed from the deposited model; also called cytoplasmic Pro-macrobody; source: E. coli MC1061, purified (Ni-NTA, 3C cleavage, Strep-Tactin XT); not shown: MBP with deca-His tag, N-terminal, cleaved
The experiment in a line: cryo-EM structure; purified UCP1, PMb65 and PMb71 mixed stoichiometrically, overnight at 4°C, with 2 mM GTP and 2 mM D-maltose; 20 mM MES pH 6.0, 150 mM NaCl, 0.02% decyl maltose neopentyl glycol.

In data set [2] the target is T2, Pro-macrobody PMb71 (nanobody CA9871 fused with maltose-binding protein via a Pro-Pro linker) (llama (Lama glama) | ).
T2 construct: nanobody CA9871; the structure with PMb71 is deposited as PDB 8G8W; Pro-Pro linker between nanobody and MBP; also called matrix Pro-macrobody; source: E. coli MC1061, purified (Ni-NTA, 3C cleavage, Strep-Tactin XT); not shown: MBP with deca-His tag, N-terminal, cleaved
Described as above.

Data set [3] concerns the target B1. Put plainly: thermostability shift assay (cysteine-reactive probe CPM); 5 μg purified human UCP1 with an equimolar amount of nanobody, with or without 1 mM GTP, 1 hour at 4°C; 25° to 90°C at 5.6°C/min.

Consider B1, for which the binding result in data set [1] and in data set [2] was “binds” each time. Take B2: the “thermal stabilisation (shift of Tm)” value in data set [3] was 5 °C. On the same count and under the same terms, next, B3: 0.8 °C.
